T1: murine NT5E expressed on 4T1 cells (murine) (UniProt Q61503)
T1 sequence (looked up): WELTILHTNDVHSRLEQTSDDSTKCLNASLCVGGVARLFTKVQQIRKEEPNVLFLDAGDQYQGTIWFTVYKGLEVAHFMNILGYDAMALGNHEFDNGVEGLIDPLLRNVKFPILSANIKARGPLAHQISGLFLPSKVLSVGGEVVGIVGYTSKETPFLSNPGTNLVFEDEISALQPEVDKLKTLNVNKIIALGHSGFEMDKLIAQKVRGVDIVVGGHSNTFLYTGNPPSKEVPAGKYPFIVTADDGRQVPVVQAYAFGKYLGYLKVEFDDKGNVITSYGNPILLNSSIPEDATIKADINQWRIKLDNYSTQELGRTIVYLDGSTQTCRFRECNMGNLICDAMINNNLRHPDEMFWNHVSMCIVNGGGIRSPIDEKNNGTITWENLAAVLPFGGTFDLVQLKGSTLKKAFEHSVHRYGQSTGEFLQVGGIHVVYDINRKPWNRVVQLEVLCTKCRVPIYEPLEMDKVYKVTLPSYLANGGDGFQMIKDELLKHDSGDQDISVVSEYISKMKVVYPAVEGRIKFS

T2: human NT5E expressed on MDA-MB-231 cells (human) (UniProt P21589)
T2 sequence (looked up): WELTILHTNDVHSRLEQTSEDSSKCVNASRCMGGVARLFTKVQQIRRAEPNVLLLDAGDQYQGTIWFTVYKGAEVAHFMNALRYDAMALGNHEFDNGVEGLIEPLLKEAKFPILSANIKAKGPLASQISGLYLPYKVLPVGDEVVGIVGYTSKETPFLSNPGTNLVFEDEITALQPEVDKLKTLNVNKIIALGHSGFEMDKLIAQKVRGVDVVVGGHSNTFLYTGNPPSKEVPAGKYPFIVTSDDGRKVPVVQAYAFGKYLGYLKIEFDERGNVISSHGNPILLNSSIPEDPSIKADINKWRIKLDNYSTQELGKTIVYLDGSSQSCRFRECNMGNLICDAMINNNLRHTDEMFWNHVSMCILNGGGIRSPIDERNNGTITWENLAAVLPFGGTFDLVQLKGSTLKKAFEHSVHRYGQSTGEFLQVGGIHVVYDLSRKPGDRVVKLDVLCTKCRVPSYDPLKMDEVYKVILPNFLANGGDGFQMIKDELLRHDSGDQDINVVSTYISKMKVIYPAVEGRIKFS


Experiments:
[1] = target: T1, murine NT5E expressed on 4T1 cells (murine); assay: cell-based or functional assay
[2] = target: T2, human NT5E expressed on MDA-MB-231 cells (human); assay: cell-based or functional assay

Row | IC50 of inhibition of NT5E activity on 4T1 cells, ATP [1] | IC50 of inhibition of NT5E activity on MDA-MB-231 cells, ATP [2] | IC50 of inhibition of NT5E activity on MDA-MB-231 cells, no ATP [2] | Binder
1 | 12.7 nM | 2.5 nM | 6.9 nM | 1789 AM39 IgG (antibody, V domains shown) VH: EVQLVESGGGLVQPGGSLRLSCAASGFNVSYSSIHWVRQAPGKGLEWVASIRGAGSDTRYADSVKGRFTISADTSKNTAYLQMNSLRAEDTAVYYCARNYWGWYPFYYFAFDYWGQGTLVTVSS VL: DIQMTQSPSSLSASVGDRVTITCRASQSVSSAVAWYQQKPGKAPKLLIYSASSLYSGVPSRFSGSRSGTDFTLTISSLQPEDFATYYCQQGWDYPITFGQGTKVEIKR
2 | 9.1 nM | 2.3 nM | 5.6 nM | 1789 AM32 IgG (antibody, V domains shown) VH: EVQLVESGGGLVQPGGSLRLSCAASGFNVSYSSIHWVRQAPGKGLEWVARIRGNEGDTYYADSVKGRFTISADTSKNTAYLQMNSLRAEDTAVYYCARNYWGWYPFYYFAFDYWGQGTLVTVSS VL: DIQMTQSPSSLSASVGDRVTITCRASQSVSSAVAWYQQKPGKAPKLLIYSASSLYSGVPSRFSGSRSGTDFTLTISSLQPEDFATYYCQQGWDYPITFGQGTKVEIKR
3 | 8.8 nM | 1.9 nM | 5.4 nM | 1789 AM42 IgG (antibody, V domains shown) VH: EVQLVESGGGLVQPGGSLRLSCAASGFNVSYSSIHWVRQAPGKGLEWVAKIRGGHQDTHYADSVKGRFTISADTSKNTAYLQMNSLRAEDTAVYYCARNYWGWYPFYYFAFDYWGQGTLVTVSS VL: DIQMTQSPSSLSASVGDRVTITCRASQSVSSAVAWYQQKPGKAPKLLIYSASSLYSGVPSRFSGSRSGTDFTLTISSLQPEDFATYYCQQGWDYPITFGQGTKVEIKR

From patent publication US20260022186A1
